Results as given in patent publication US6200577A, “Anti-herpesviral agents and assays therefor” (priority 1996, dated 2001).
“Also recorded” adds a separate entry of the source.

Assays:
[1] = Solubility of synthetic peptides in buffer; type: physicochemical; conditions: peptides dissolved in 20 mM Tris-HCl, pH 8.0, 250 mM NaCl; unpurified preparations
Procedure: Synthesis and Purification of Oligopeptides. Peptides were synthesised by continuous flow Fmoc chemistry (Atherton and Sheppard, 1989; McLean et al., 1991) and, where stated in the text, were purified by preparative reverse-phase HPLC (Owsianka et al., 1993). The Mr values of peptides were determined by fast atom bombardment mass spectrometry (M-Scan) and corresponded to the predicted values. Peptides were dissolved in 20 mM Tris-HCl, pH 8.0, 250 mM NaCl and centrifuged at 11,500 g for 1 minute prior to use. […] Precipitates were removed by centrifugation before use.

[2] = target: T1, VP16/VP22trunc interaction (Human herpesvirus 1, UniProt P06492); assay: ELISA of peptide inhibition of VP16 binding to VP22trunc; design: species or system HSV-1; conditions: D and E pure preparations, effect at 100 and 500 μg/ml; VP16 1.6 μg/ml; 160 ng VP22trunc; FIG. 9
T1 construct: Plasmid pETVP16 was used to express full-length VP16 under the control of the T7 RNA polymerase promoter; made in house; host or cells: E. coli BL21(DE3)
Procedure: FIG. 9 Inhibitory effect of peptides D and E on the VP22trunc-VP16 interaction in ELISAs. Microtitre plates were coated with 160 ng of VP22trunc and blocked with PBS/10% NCS. Before addition to the wells, five-fold dilutions of the peptides, ranging from 500 μg/ml to 1 g/ml, were incubated with VP16 (1.6 μg/ml). Bound VP16 was detected with LP1 at a dilution of 1:1000. The legend for the peptides added is shown to the right of the graph. Values are shown relative to those obtained in the absence of the peptide.
(§1) Dilutions of proteins in PBS were coated overnight onto flat bottomed micro-titre plates (Dynatech) at 37° C. and then blocked with either 2% BSA or 10% new-born calf serum (NCS) in PBS for 1 hour at 37° C. Specific binding of a second protein to the plate-bound protein was performed for 1.5-2 hours at ambient temperature. a Excess secondary protein was removed by washing four times with PBS, 0.3% Tween 20. Bound protein was detected by incubation for 1.5-2 hours with LP1 antibody in PBS, 1% gelatin or PBS, 2% NCS. The bound antibody was detected by incubation for 1 hour at ambient temperature with anti-mouse antibody conjugated to HRP (1:500) and visualised with Smg/ml enzyme substrate 2,2'-azino-bis(3-ethylbenzthiazoline-6-sulphonic acid) (ABTS; Sigma) in citrate-phosphate buffer containing 6 μl hydrogen peroxide in a total volume of 20 ml. Optical densities were measured on a Titertek Multiscan PLUS instrument.
To adopt a more quantitative approach, an ELISA for VP16 binding to VP22trunc was developed. Optimal conditions were determined by coating wells with various quantities of VP22trunc followed by blocking with 2% BSA. Plates were then incubated with dilutions of VP16 and the bound VP16 detected with LP1.
The studies presented above have provided strong evidence in support of peptide inhibition of the interaction between VP16 and VP22. However, quantitative analysis of the ability of peptides to block any interaction is difficult to perform by the above methods. Therefore, using the ELISA system described in Results Section 2(iii) with the exception that PBS/10% NCS was utilised as a blocking agent, the inhibitory effects of peptides D and E were examined. This modification arose due to nonspecific binding of the peptides to wells when BSA was used for blocking (data not shown).

VP16 = target: T2, VP16 (Human herpesvirus 1, UniProt P06492); assay: ELISA of direct binding of VP16 to plate-coated peptides; design: species or system HSV-1; conditions: wells coated with peptide up to 500 μg/ml; VP16 1.6 μg/ml; FIG. 10
T2 construct: Plasmid pETVP16 was used to express full-length VP16 under the control of the T7 RNA polymerase promoter; made in house; host or cells: E. coli BL21(DE3)
Procedure: FIG. 10 Binding of VP16 to peptides. Microtitre plates were coated with 5-fold dilutions of peptides ranging from 500 μg/ml to 1 μg/ml and blocked with PBS/10% NCS. VP16 was then added to a final concentration of 1.6 μg/ml and detected with LP1. The legend for the peptides added is shown to the right of the graph.
as §1
To examine whether VP16 could bind directly to the peptides, wells were coated with each peptide (A-J) at a range of concentrations from […] to 500 μg/ml and the plate was then blocked with […]. […] Nonetheless, the data for peptides D and E implicate direct binding of these peptides to VP16 as the mechanism for inhibiting its interaction with VP22. Peptide H also was active in experiments which prevented gB binding to VP22trunc [Section 4 (iii)] and thus also forms an aspect of the invention.

[3] = target: T1, VP16/VP22trunc interaction; assay: Far Western analysis of peptides blocking VP16 binding to immobilised VP22trunc; design: species or system HSV-1
Procedure: FIG. 7 Far Western analysis of the ability of peptides to block the interaction between VP16 and immobilised VP22trunc. Purified VP22trunc was added to partially purified extract of VP16 and the sample run on a 12% polyacrylamide gel. Proteins were then transferred to nitrocellulose membrane and the blot was cut into strips, with each strip containing approximately 1 g of VP22trunc. In (A), strips were pre-incubated with 1 mg of each of the following peptides: lane 2, no peptide, lane 3, peptide C; lane 4, peptide D; lane 5, peptide E; lane 6, peptide F; lane 7, peptides D and E; lane 8, peptides C and F. In (B) strips were pre-incubated with 1 mg of each of the following peptides: lane 2, no peptide, lane 3, peptide C; lane 4, purified peptide D; lane 5, purified peptide E; lane 6, peptide F. 24 g of pure VP16 was then added to strips 2 to 8 in (A) and strips 2 to 6 in (B), followed by incubation with LP1 antibody (1:1000 dilution). As a control, portions of the blot were incubated with LP1 or the 9220 antibody at a dilution of 1:1000 (lane 1 for LP1 in A and B; lane 9 in A and lane 7 in B for 9220). The apparent molecular weights of VP16 (65 KDa) and the dimer (32 KDa) and monomer (16 KDa) forms of VP22trunc are shown.
Following electrophoresis, proteins were electrotransferred to either Hybond or ProBlott (Applied Biosystems) membrane and the membrane was incubated in renaturation buffer (50 mM Tris-HCl, pH 8.0, 150 mM NaCl, 10% glycerol, 1 mM DTT) at 4° C. for 5-6 hours.
For membranes probed with either VP16 or VP22trunc, blocking was performed overnight as described for Western blot analysis. Probing with epitope-tagged VP22 or VP16 was performed in 20 mM Tris-HCl, pH 8.0, 250 mM NaCl for 1.5 hours at ambient temperature. Excess probe was removed by washing 4 times (10 minutes per wash) in 20 mM Tris-HCl, pH8.0, 250 mM NaCl, followed by incubation with the appropriate antibody at a dilution of 1:1000 in TTBS/1% gelatin for 1.5-2 hours. Bound antibody was detected as described for Western blot analysis.
Based on the studies with soluble VP16 and VP22trunc presented above, only a restricted number of peptides were examined by Far Western analysis to identify those that may prevent binding of VP16. Thus, VP22trunc was added to a crude extract of bacterially expressed VP16 and the proteins were electrophoresed on a polyacrylamide gel followed by transfer to a membrane. […] Before the addition of VP16 the blot strips in lanes 3 to 8 were incubated with crude preparations of peptides C, D, E, or E' as well as mixtures of either 0 and E or C and F. When the blot strips were incubated with peptides C and F either singly or in combination, VP16 bindincg to VP22trunc was not prevented (FIG. 7A, lanes 3, 6 and 8).

T1 sequence (P06492 whole entry): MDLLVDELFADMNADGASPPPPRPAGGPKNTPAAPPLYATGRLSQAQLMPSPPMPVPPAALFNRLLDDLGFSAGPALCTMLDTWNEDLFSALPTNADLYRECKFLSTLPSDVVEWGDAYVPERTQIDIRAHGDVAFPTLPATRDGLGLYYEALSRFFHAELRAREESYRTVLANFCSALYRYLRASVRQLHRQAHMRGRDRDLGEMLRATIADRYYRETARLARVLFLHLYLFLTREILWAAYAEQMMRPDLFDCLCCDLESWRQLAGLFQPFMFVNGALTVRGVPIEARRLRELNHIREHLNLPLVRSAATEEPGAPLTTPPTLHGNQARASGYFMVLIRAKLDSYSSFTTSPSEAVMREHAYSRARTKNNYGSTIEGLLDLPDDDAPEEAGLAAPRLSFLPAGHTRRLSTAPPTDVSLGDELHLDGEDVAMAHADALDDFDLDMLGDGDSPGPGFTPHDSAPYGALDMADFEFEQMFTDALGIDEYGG
T2 sequence (P06492 whole entry): as above

Sequence	Solubility [1]	Inhibition of VP16 binding to VP22trunc in ELISA [2]	Direct binding of VP16 to plate-coated peptide (ELISA) (VP16)	Blocking of VP16 binding to immobilised VP22trunc (Far Western), crude peptides ([3]; strips pre-incubated with 1 mg of crude peptide, FIG. 7A)	Blocking of VP16 binding to immobilised VP22trunc (Far Western), repeat with purified peptides D and E ([3]; strips pre-incubated with 1 mg peptide, D and E purified, FIG. 7B)
KTPAQGLARKLHFSTAPPNP [Peptide B]	soluble	neither peptides B, C nor F had any effect	binding did not occur		
GSHMARTAPTRSKTPAQGLA [Peptide A]	soluble		binding did not occur		
RMAAVQLWDMSRPRTDEDLN [Peptide F]	soluble	neither peptides B, C nor F had any effect	binding did not occur	not prevented	had no effect
DVVQDVPDPERKTPRVTGG [Peptide J]	soluble		binding did not occur		
PRTDEDLNELLGITTIRVTV [Peptide G]	partly; also recorded: partially insoluble		binding did not occur		
NLLQRANELVNPDVVQDVPD [Peptide I]	soluble		binding did not occur		
